Positions count from the first letter of the chain named.
B1: H1M724N (antibody, V domains shown)
VH: QVQLVESGGGVVQPGRSLRLSCAASGFTLSNYGMHWVRQAPGKGLEWVAVIWHDGSNTYYADSVKGRFTISRDNSKNTLYLQMNSLRAEDTAVYYCTREGLDFWSGYYPNWFDPWGQGTLVTVSS
VL: DIQMTQSPSSLSASVGDRVTITCRASQGIRNDLGWYQQKPGKAPKRLIYAASNLQGGVPSRFSGSGSGTEFTLTISSLQPEDFAAYYCLQHNIYPLTFGGGTKVEIK
B2: H1M732N (antibody, V domains shown)
VH: EVQLVESGGGLVRPGGSLRLSCAASGFTFTNAWMSWVRQAPGKGLEWIGQIKSKTDGGTIDYAAPVKGRFTVSRDDSENTLFLQMNSLKTEDTAVYYCAGNWNYVDFDYWGQGTLVTVSS
VL: B1 VL with G28D, N53S, A85T, I93S, L96F, G100P, E105D
B3: H1H732N (antibody, V domains shown)
VH: B2 VH
VL: B1 VL with G28D, N53S, A85T, I93S, L96F, G100P, E105D
B4: H1H743N (antibody, V domains shown)
VH: EVQLLESGGGLVQPGGSLRLSCAASGFTFRKYAMSWVRQAPGKGLEWVSVISVSGGNTYYADSVKGRFTISRDNSKNTLYLQLNSLRAEDTAVYYCAKDLTDIVLMVYVDYWGQGTLVTVSS
VL: DIQMTQSPSSVSASVGDRVTITCRASQDIDRWLAWYQQKPGKAPKLLIYAASSLQSGVPSRFSGSGSGTDFTLTISTLQPEDFATYYCQQANSLPFTFGGGTKVEIK
B5: H1H693P (antibody, human IgG1, V domains shown)
VH: EVQLVESGGGLVQPGESLRLSCAASGFTFSSYAMSWVRQGPGKGLEWVSSISGSGGTTYYADSVEGRFTISRDNSKNTLYLHMNSLRAEDTAVYYCAKDFLDYSTYLAFDLWGQGTMVTVSS
VL: B4 VL with D28G, D30S, R31S, T77S, L94F, F96R, G100Q
B6: H2M743N (antibody, V domains shown)
VH: B4 VH
VL: B4 VL
B7: H1H750N (antibody, V domains shown)
VH: QVKLVESGGGVVQPGRSLRVSCAASGFTFSSYGMHWVRQAPGKGLEWLAIIWYDGDNKYYSDSVKGRFTISRDNSKNTLYLQMNSLRAEDTAEYYCVRDASIASRFLDYWGQGTLVTVSS
VL: DIQMTQSPSSLSASIGDRVTITCRATQDINNYLAWFQQKPGKAPKSLIYATSNLQSGVPSKFSGSGSGTDYTLTISSLQPEDFSTYYCQQYHSYPLTFGGGTKVEIK
B8: H2M750N (antibody, V domains shown)
VH: B7 VH
VL: B7 VL
B9: H1M728N (antibody, V domains shown)
VH: EVQLVESGGDLVQPGGSLRLSCTASGFTFSKYWMTWVRQAPGRGLEWVANIKEDGNEKYFLDSVKGRFTISRDNAKDLLFLQMNSLRGEDTAVYYCVRDRGIEVAGPFDYWGQGTLVTVSS
VL: DIQMTQSPSTLSASVGDRVTVTCRASQTIINWLAWYQQKPGKAPKLLISKASSLESGVPSRFSGSGSGTEFTLTISSLQPDDFATYYCQQYNRYWTFGQGTMVEIK
B10: H1H728N (antibody, V domains shown)
VH: B9 VH
VL: B9 VL
B11: H2M730N (antibody, V domains shown)
VH: EVQLVESGGGLVQPGGSLRLSCAASGFAFRSYWMTWVRQAPGKGLEWVANIQQDGNDKYYVDSVKGRFTISRDNAKNSLYLQMNSLRAEDTAVYYCARDTGIAEAGPFDYWGQGTLVTVSS
VL: B9 VL with T20S, V21I, N31S, K45R, S49Y, S76N, M102K
B12: H1H730N (antibody, V domains shown)
VH: B11 VH
VL: B9 VL with T20S, V21I, N31S, K45R, S49Y, S76N, M102K
B13: H1H742N (antibody, V domains shown)
VH: DVQLLESGGDLVQPGGSLRLSCEASGFTFRNYVMIWVRQAPGKGLEWVSGISNSGGTTHYTDSVKGRFTISRDNSKNTLYLQINSLRAEDTAVYYCAKGYLDTSLIEGNWFDPWGQGTLVTVSS
VL: NIVMTQSPLSLPVTPGEPASISCRSSQSLLHSNGFNYLNWFLQKPGQSPQLLIYLGSNRASGVPDKFSGSGSGTDFTLNINRVEAEDVGIYFCMQTLQTPLTFGGGTKVEIK
B14: H2M742N (antibody, V domains shown)
VH: B13 VH
VL: B13 VL

How the values were obtained:
[1] = target: Human Ang-2FD-hFc (human); assay: ELISA; 16.67 nM antibody premixed with Ang-2FD-hFc, binding to coated hTie-2-mFc
[2] = target: Monkey Ang-2FD-hFc (monkey (Macca fascicularis)); assay: as above
[3] = target: Mouse Ang-2FD-hFc (mouse (Mus musculus)); assay: as above
[4] = target: Dimeric Human Ang-2FD conjugated to human IgG1 (human); assay: SPR, antibody captured, room temperature
[5] = target: Dimeric Monkey Ang-2FD conjugated to human IgG1 (monkey (Macca fascicularis)); assay: SPR, antibody captured, room temperature
[6] = target: Dimeric Mouse Ang-2FD conjugated to human IgG1 (mouse (Mus musculus)); assay: SPR, antibody captured, room temperature
[7] = target: Dimeric Human Ang-2FD conjugated to human IgG1 (human); assay: ELISA, 16.67 nM antibody, Ang-2FD-hFc binding to coated hTie-2-mFc
[8] = target: Dimeric Monkey Ang-2FD conjugated to human IgG1 (monkey (Macca fascicularis)); assay: as above
[9] = target: Dimeric Mouse Ang-2FD conjugated to human IgG1 (mouse (Mus musculus)); assay: as above
[10] = target: Dimeric Human Ang-2FD conjugated to human IgG1 (human); assay: SPR, human IgG1 antibody captured
[11] = target: Dimeric Monkey Ang-2FD conjugated to human IgG1 (monkey (Macca fascicularis)); assay: SPR, human IgG1 antibody captured
[12] = target: Dimeric Mouse Ang-2FD conjugated to human IgG1 (mouse (Mus musculus)); assay: SPR, human IgG1 antibody captured

Sequence of Dimeric Mouse Ang-2FD conjugated to human IgG1 (mouse (Mus musculus)) (chain, as listed by the source limits assumed): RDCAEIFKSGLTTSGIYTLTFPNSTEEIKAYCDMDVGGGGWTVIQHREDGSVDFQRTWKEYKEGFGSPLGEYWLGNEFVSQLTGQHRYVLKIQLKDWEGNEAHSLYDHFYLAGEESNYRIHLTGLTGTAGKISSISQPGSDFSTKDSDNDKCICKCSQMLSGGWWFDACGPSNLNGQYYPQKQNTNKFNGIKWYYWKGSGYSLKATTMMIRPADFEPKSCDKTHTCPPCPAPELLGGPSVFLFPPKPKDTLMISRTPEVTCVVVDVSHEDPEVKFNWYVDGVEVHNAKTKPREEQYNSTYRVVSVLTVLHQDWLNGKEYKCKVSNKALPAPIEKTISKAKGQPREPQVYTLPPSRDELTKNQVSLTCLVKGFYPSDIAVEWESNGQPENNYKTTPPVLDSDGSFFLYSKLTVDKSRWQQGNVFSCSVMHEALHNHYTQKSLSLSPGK
Sequence of Dimeric Monkey Ang-2FD conjugated to human IgG1 (monkey (Macca fascicularis)) (chain, as listed by the source limits assumed): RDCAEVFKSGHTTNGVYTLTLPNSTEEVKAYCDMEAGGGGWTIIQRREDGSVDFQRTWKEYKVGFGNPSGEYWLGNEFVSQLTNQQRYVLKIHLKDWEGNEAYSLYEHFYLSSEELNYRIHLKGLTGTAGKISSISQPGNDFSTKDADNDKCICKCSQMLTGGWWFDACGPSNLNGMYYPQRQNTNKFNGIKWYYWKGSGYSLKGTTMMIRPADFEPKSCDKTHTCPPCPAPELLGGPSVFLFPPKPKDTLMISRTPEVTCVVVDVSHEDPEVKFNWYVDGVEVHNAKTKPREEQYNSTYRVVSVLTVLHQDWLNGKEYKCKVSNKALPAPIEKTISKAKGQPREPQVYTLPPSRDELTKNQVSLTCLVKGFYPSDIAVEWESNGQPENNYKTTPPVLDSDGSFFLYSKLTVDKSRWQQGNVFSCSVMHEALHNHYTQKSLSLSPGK
Sequence of Dimeric Human Ang-2FD conjugated to human IgG1 (human) (chain, as listed by the source limits assumed): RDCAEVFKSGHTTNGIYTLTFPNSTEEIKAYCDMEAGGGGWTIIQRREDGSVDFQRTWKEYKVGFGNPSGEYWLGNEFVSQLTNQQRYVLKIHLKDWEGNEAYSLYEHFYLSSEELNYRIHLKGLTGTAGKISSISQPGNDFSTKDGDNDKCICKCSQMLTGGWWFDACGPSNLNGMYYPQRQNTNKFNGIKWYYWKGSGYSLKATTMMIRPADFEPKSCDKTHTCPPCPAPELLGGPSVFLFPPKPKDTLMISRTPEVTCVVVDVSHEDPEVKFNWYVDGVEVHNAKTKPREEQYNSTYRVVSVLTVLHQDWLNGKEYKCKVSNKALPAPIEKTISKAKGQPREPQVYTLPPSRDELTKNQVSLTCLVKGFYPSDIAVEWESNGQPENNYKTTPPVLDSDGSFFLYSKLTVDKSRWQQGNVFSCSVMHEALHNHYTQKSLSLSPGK

Molecule | Percent Blocking of Ang-2FD Binding to Tie-2 [1] [%] | Percent Blocking of Ang-2FD Binding to Tie-2 [2] [%] | Percent Blocking of Ang-2FD Binding to Tie-2 [3] [%] | Kd [4] [pM] | T1/2 [4] [min] | Kd [5] [pM] | T1/2 [5] [min] | Kd [6] [pM] | T1/2 [6] [min] | Percent Blocking of Ang-2FD Binding to Tie-2 [7] [%] | Percent Blocking of Ang-2FD Binding to Tie-2 [8] [%] | Percent Blocking of Ang-2FD Binding to Tie-2 [9] [%] | Kd [10] [pM] | T1/2 [10] [min] | Kd [11] [pM] | T1/2 [11] [min] | Kd [12] [pM] | T1/2 [12] [min]
Control I (Ab) (antibody) | 97.3 | 98.5 | 82.2 |  |  |  |  |  |  |  |  |  |  |  |  |  |  | 
B1 |  |  |  | 179 | 42.7 | 730 | 25.7 | 694 | 16 | 99.5 | 95.2 | 96.6 |  |  |  |  |  | 
B2 |  |  |  | 484 | 35.5 | 7330 | 24.1 | 1700 | 21.4 | 97.7 | 95.8 | 90.9 |  |  |  |  |  | 
B3 |  |  |  |  |  |  |  |  |  |  |  |  | 386 | 57 | 439 | 118 | 529 | 51
B4 |  |  |  |  |  |  |  |  |  |  |  |  | 88.2 | 254 | 96.5 | 780 | 124 | 233
B5 | 73.9 |  | 63.6 |  |  |  |  |  |  |  |  |  | 500 | 37.1 | 1170 | 17.6 | 446 | 63.7
B6 |  |  |  | 154 | 167 | 234 | 169 | 882 | 195 | 99.6 | 95.1 | 98.4 |  |  |  |  |  | 
B7 |  |  |  |  |  |  |  |  |  |  |  |  | 164 | 127 | 199 | 244 | 218 | 121
B8 |  |  |  | 362 | 32.2 | 1470 | 23 |  |  | 99.4 | 97.4 | 53.7 |  |  |  |  |  | 
B9 |  |  |  | 137 | 58.4 | 1580 | 69.5 | 5650 | 9.9 | 98.5 | 97.1 | 83.9 |  |  |  |  |  | 
B10 |  |  |  |  |  |  |  |  |  |  |  |  | 162 | 81 | 2000 | 77 | 5760 | 20
B11 |  |  |  | 210 | 47 | 842 | 36.6 |  |  | 98.9 | 97.3 | 55 |  |  |  |  |  | 
B12 |  |  |  |  |  |  |  |  |  |  |  |  | 234 | 62 | 3400 | 87 | 97.1 | 90
B13 |  |  |  |  |  |  |  |  |  |  |  |  | 186 | 65 | 683 | 93 | 276 | 58
B14 |  |  |  | 295 | 38 | 6170 | 28.5 | 610 | 30.8 | 99.6 | 94.1 | 98.6 |  |  |  |  |  | 

Source: patent US20130129722A1
